Results published in patent CN111234017A (NANJING YOUMAI BIOTECHNOLOGY CO LTD, dated 2020).

Columns and labels:
[1] = molecular target: T1, human PD-L1 expressed on cells (CT26 transfected with human PD-L1, HCC827, Raji-PD-L1, CHO-PDL1-OKT3) (human, UniProt Q9NZQ7 19-290); assay: flow cytometry on HCC827 cells naturally overexpressing PD-L1
T1 construct: whole, on cells; For CT26 the plasmid encodes human PD-L1 and HCC827 is a human tumour line; also called 过表达PD-L1的CT26细胞; HCC827细胞

[2] = molecular target: T1, human PD-L1 expressed on cells (CT26 …); assay: flow cytometry competition: inhibition of human PD-1-Fc binding to Raji-PD-L1 cells
[3] = molecular target: 食蟹猴PD-L1蛋白 (cynomolgus monkey PD-L1 protein) (cynomolgus monkey); assay: ELISA on coated cynomolgus PD-L1 protein
[4] = molecular target: T1, human PD-L1 expressed on cells (CT26 …); assay: flow cytometry on CT26 cells transfected with human PD-L1
[5] = molecular target: T2, 人PD-L1蛋白 (human PD-L1 protein) (human, UniProt Q9NZQ7 19-238, limits assumed); assay: ELISA, human PD-L1 protein coated at 1 μg/mL, HRP secondary antibody, OD450
T2 construct: also called CD274; B7-H1
T2 sequence (Q9NZQ7 19-238 limits assumed): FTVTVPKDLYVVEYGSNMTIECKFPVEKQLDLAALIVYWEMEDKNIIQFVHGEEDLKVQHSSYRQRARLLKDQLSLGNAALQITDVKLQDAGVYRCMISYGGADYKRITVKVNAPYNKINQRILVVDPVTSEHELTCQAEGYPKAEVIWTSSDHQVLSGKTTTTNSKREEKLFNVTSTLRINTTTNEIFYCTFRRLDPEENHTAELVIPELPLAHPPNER

[6] = molecular target: T2, 人PD-L1蛋白 (human PD-L1 protein); assay: SPR, Biacore 8K, antibody captured on protein A sensor chip, PD-L1 protein as analyte
[7] = molecular target: T1, human PD-L1 expressed on cells (CT26 …); assay: cell-based or functional assay

T1 sequence (Q9NZQ7 19-290): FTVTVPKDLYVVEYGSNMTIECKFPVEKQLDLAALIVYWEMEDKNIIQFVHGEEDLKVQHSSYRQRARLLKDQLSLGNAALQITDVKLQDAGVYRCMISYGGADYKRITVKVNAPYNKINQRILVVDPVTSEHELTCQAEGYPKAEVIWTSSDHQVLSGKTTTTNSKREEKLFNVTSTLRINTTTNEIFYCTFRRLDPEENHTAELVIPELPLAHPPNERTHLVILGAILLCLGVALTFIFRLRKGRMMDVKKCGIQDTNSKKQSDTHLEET

Row | Binder | EC50 [1] [µg/mL] | IC50 [2] [µg/mL] | EC50 [3] [µg/mL] | EC50 [4] [µg/mL] | EC50 [5] [µg/mL] | Kd [6] [pM] | Jurkat-PD-1/NFAT-luciferase报告基因活性 (luciferase bioluminescence), EC50 [7] [µg/mL]
1 | 人-鼠嵌合抗体MT02-L4 (human-mouse chimeric anti-human PD-L1 antibody MT02-L4) (antibody, human IgG1, kappa, V domains shown, Mouse 13B8 variable regions joined to the human IgG1 heavy constant region and the kappa constant region) VH: EVQLQESGPSLVKPSQTLSLTCSVTGDSITSGYWSWIRKFPGNNLDYMGYISYTGSTYYSPSLIRRMSINRDTSKNQFYLQLNSVTTEDTATYYCAKYENWKEGYFDIWGAGTTVTVSS VL: DIVMTRSQKFMSTSVGDRVSVTCKASQNVGINVAWYQQKAGQSPKALIHSATQRYSGVPDRFTGGGSGTDFTLTIDDVQSADLAEYFCQQYYGYPLTFGAGTRLELKR | 0.0445 | 0.481 | 0.0422 | 0.209 | 0.216 |  | 
2 | 人源化抗体MT02-C4 (humanized anti-human PD-L1 antibody MT02-C4) (antibody, human IgG1, kappa, V domains shown, Humanized (CDR grafting with back mutations), human IgG1 / kappa) VH: QVQLQESGPGLVKPSETLSLTCTVSGDSITSGYWSWIRQPPGKGLEYMGYISYTGSTYYSPSLIRRMTISRDTSKNQFSLKLSSVTAADTAVYYCAKYENWKEGYFDIWGQGTLVTVSS VL: DIQMTQSPSSLSASVGDRVTITCKASQNVGINVAWYQQKPGKAPKALIYSATQRYSGVPSKFSGSGSGTDFTLTISSLQPEDFATYFCQQYYGYPLTFGQGTRLEIKR | 0.0864 | 0.298 |  | 0.378 | 0.0651 | 400 | 0.0838
